Entries after “also recorded” stand apart in the source; their conditions may differ.
Tests used:
desMet-G-CSF = test: Digestion of desMet-G-CSF with DPPIV; conditions: overnight 37° C., E/S 1/20 (w:w)
gliadin 33 mer = test: Digestion of gliadin 33 mer (RP-HPLC, ESI-MS); assay type: biochemical, wheat
[1] = test system: gliadin 14 mer PQPQLPYPQPQLPY; assay type: biochemical, wheat; conditions: 4 h, 37° C., 1 mM CoCl2, pH7.2
[2] = Enzymatic activity of T. rubrum AMPP at various temperatures (FIG. 5); assay type: biochemical
Excerpt: FIG. 5 is a graph of the enzymatic activity of T. rubrum AMPP at various temperatures.

[3] = Enzymatic activity of T. rubrum AMPP at various pH values (FIG. 4); assay type: biochemical
Excerpt: FIG. 4 is a graph of the enzymatic activity of T. rubrum AMPP (aminopeptidase P) at various pH values. It appears that AMPP has activity over a broad range of pH values, from pH 6 to 11.

[4] = Aminopeptidase activity assay with fluorogenic aminoacyl-AMC substrates; assay type: biochemical
Description: (§1) Aminopeptidase activity was determined using different fluorogenic aminoacyl-4-methylcoumaryl-7-amide derivatives of peptides and the internally quenched fluorogenic substrate Lys(Abz)-Pro-Pro-pNA for specific determination of aminopeptidase P activity. Stockel et al, Adv Exp. Med. Biol. 421:31-35 (1997). All substrates were from Bachem (Bubendorf, Switzerland). Substrate stock solutions were prepared at 0.1 M according to the recommendations of the manufacturer and stored at −20° C. The reaction mixture contained a concentration of 5 mM substrate and enzyme preparation (between 56 and 2,662 ng per assay depending on the cleavage activity of each enzyme for the substrates) in 25 μl of 50 mM Tris-HCl buffer adjusted at the optimal pH for each LAP (between 7 and 8). After incubation at 37° C. for 60 min, the reaction was terminated by adding 5 μl of glacial acetic acid and the reaction mixture was diluted with 3.5 ml of water. The released 7-amino-4-methylcoumarin (AMC) was measured using a spectrofluorophotometer (Perkin Elmer LS-5 fluorometer, Zurich, Switzerland) at an excitation wavelength of 370 nm and an emission wavelength of 460 nm. A standard curve made with synthetic AMC was used to assess the released AMC. The released diprolyl-p-nitroanilide was measured at an excitation wavelength of 310 nm and an emission wavelength of 410 nm. The LA activities were expressed in mnoles of released AMC or pNA/min/μg protein.
Table 15 details the hydrolytic activity of different LAPs toward various aminoacyl-MCA comparison (%) to Leu-MCA used as a standard.

denatured casein = test: Digestion of full-length polypeptide chain (denatured casein); assay type: biochemical; conditions: partially purified, in the presence of a trypsin-like endoprotease from the P. pastoris expression system
[5] = Aminopeptidase P activity assay; assay type: biochemical; conditions: substrate Lys(Abz)-Pro-Pro-pNA, 5 mM, 37° C., 60 min
Description: as §1

Ala-proNPY = test: Digestion of Ala-proNPY with ruLAP2; assay type: biochemical; conditions: overnight 37° C.
Description: The digested material was isolated by RP-HPLC and characterized by ESI-MS. […] The same result is obtained at an 1:[…] ratio. Digestion halts when the enzyme reaches a Xaa-Pro-motif, which in case of proNPY is Tyr-Pro. Conditions of incubation were the same as for Gly-Ser-proNPY.

Which “cleavage of N-terminal dipeptide from desMet-G-CSF” value (desMet-G-CSF) does the source give for “ruDPPIV: T. rubrum dipeptidylpeptidase IV, 775 amino acid residues (SEQ ID NO: 35)” here?
Its value is “Traces of undigested material are still present”.

What about the “digestion of the 33 mer” value (gliadin 33 mer; 37° C., 1 mM CoCl2, pH7.2) of the same molecule?
The value was “not a substrate”.

And the “digestion of the 14 mer” value [1]?
The value was “not able to hydrolyse the peptide”.

B1: AMPP: T. rubrum aminopeptidase P (SEQ ID NO: 24) (protein, listed as Trichophyton rubrum)
chain: MPPPPVDTTQRLAKLRELMAQNKVDVYIVPSEDSHQSEYIAPCDGRRAFISSFTGSAGCAIVSMSKAALSTDGRYFSQAAKQLDANWILLKRGVEGVPTWEEWTAEQAETRQGCGSDARKLSQTLKTTGGSLVGIDQNLIDAVWGDERPARPANQITVQPVERAGKSFEEKVEDLRKELTAKKRSAMVISSKFLYKWYLSLYTKSHADWCSIPYNPVFFSYAIVTPSVAELYVDESKLSPEARKHLEGKVVLKPYESIFQASKVLAESKASASSGSSGKFLLSNKASWSLSLALGGEQNVVEVRSPITDAKAIKNEVELEGFRKCHIRDGAALIEYFAWLENALIKEGAKLDEVDGADKLFEIRKKYDLFVGNSFDTISSTGANGATIHYKPEKSTCAIIDPKAMYLCDSGGQYLDGTTDTTRTLHFGEPTEFQKKAYALVLKGHISIDNAIFPKGTTGYAIDSFARQHLWKEGLDYLHGTGHGVGSFLNVHEGPMGIGSRAQYAEVPLSASNSLDIMKTATSAFVSRVSSMTAYSSFFILTASLDLVICKEVQTAHKFGDKPFLGFESITLVPFCQKLLDASLLTEAERKWVNDYHAKVWEKTSPFFEKDELTTAWLKRETQPI
Which optimal temperature [2] does the source give for B1 here?
Its optimal temperature is 50 C.

And the “temperature range of activity” value [2]?
Its value is 25 to 60 C.

And the “pH range of activity” value [3]?
The value was 6 to 11 pH.

B2: ruLAP2: T. rubrum leucine aminopeptidase, 495 amino acid residues (SEQ ID NO: 3) (protein, listed as Trichophyton rubrum)
chain: MKSQLLSLAVAVTTISQGVVGQEPFGWPFKPMVTQDDLQNKIKLKDIMAGVEKLQSFSDAHPEKNRVFGGNGHKDTVEWIYNEIKATGYYDVKKQEQVHLWSHAEAALNANGKDLKASAMSYSPPASKIMAELVVAKNNGCNATDYPANTQGKIVLVERGVCSFGEKSAQAGDAKAAGAIVYNNVPGSLAGTLGGLDKRHVPTAGLSQEDGKNLATLVASGKIDVTMNVISLFENRTTWNVIAETKGGDHNNVIMLGAHSDSVDAGPGINDNGSGSIGIMTVAKALTNFKLNNAVRFAWWTAEEFGLLGSTFYVNSLDDRELHKVKLYLNFDMIGSPNFANQIYDGDGSAYNMTGPAGSAEIEYLFEKFFDDQGIPHQPTAFTGRSDYSAFIKRNVPAGGLFTGAEVVKTPEQVKLFGGEAGVAYDKNYHRKGDTVANINKGAIFLNTRAIAYAIAEYARSLKGFPTRPKTGKRDVNPQYSKMPGGGCGHHTVFM
Which “hydrolysis of Leu-AMC” value [4] does the source give for B2 here?
Its value is “efficiently hydrolyzed”.

And the “hydrolytic activity toward Ala-AMC in comparison (%) to Leu-MCA” value ([4]; substrate Ala-AMC, 5 mM, 37° C., 60 min)?
Its value is 33.3%.

What about the “hydrolytic activity toward Arg-AMC in comparison (%) to Leu-MCA” value ([4]; substrate Arg-AMC, 5 mM, 37° C., 60 min) of the same molecule?
The value was 1.9%.

What about the “hydrolytic activity toward Asn-AMC in comparison (%) to Leu-MCA” value ([4]; substrate Asn-AMC, 5 mM, 37° C., 60 min) of the same molecule?
The value was 114.6%.

And the “hydrolytic activity toward Asp-AMC in comparison (%) to Leu-MCA” value ([4]; substrate Asp-AMC, 5 mM, 37° C., 60 min)?
Its value is 3.8%.

And the “hydrolytic activity toward Cys-AMC in comparison (%) to Leu-MCA” value ([4]; substrate Cys-AMC, 5 mM, 37° C., 60 min)?
Its value is 14.9%.

What about the “hydrolytic activity toward Gln-AMC in comparison (%) to Leu-MCA” value ([4]; substrate Gln-AMC, 5 mM, 37° C., 60 min) of the same molecule?
The value was 49.9%.

And the “hydrolytic activity toward Glu-AMC in comparison (%) to Leu-MCA” value ([4]; substrate Glu-AMC, 5 mM, 37° C., 60 min)?
Its value is 3.7%.

What about the “hydrolytic activity toward Gly-AMC in comparison (%) to Leu-MCA” value ([4]; substrate Gly-AMC, 5 mM, 37° C., 60 min) of the same molecule?
The value was 3.3%.

What about the “hydrolytic activity toward Gly-Pro-AMC in comparison (%) to Leu-MCA” value ([4]; substrate Gly-Pro-AMC, 5 mM, 37° C., 60 min) of the same molecule?
Its value is 7.2%.

What about the “hydrolytic activity toward His-AMC in comparison (%) to Leu-MCA” value ([4]; substrate His-AMC, 5 mM, 37° C., 60 min) of the same molecule?
The value was 0.6%.

And the “hydrolytic activity toward Hyp-AMC in comparison (%) to Leu-MCA” value ([4]; substrate Hyp-AMC, 5 mM, 37° C., 60 min)?
The value was 14.2%.

What about the “hydrolytic activity toward Ile-AMC in comparison (%) to Leu-MCA” value ([4]; substrate Ile-AMC, 5 mM, 37° C., 60 min) of the same molecule?
Its value is 6.4%.

And the “hydrolytic activity toward Leu-AMC in comparison (%) to Leu-MCA used as a standard” value ([4]; substrate Leu-AMC (standard), 5 mM, 37° C., 60 min)?
The value was 100.0%.

What about the “hydrolytic activity toward Lys-AMC in comparison (%) to Leu-MCA” value ([4]; substrate Lys-AMC, 5 mM, 37° C., 60 min) of the same molecule?
Its value is 4.6%.

What about the “hydrolytic activity toward Met-AMC in comparison (%) to Leu-MCA” value ([4]; substrate Met-AMC, 5 mM, 37° C., 60 min) of the same molecule?
The value was 119.7%.

What about the “hydrolytic activity toward Phe-AMC in comparison (%) to Leu-MCA” value ([4]; substrate Phe-AMC, 5 mM, 37° C., 60 min) of the same molecule?
The value was 17.1%.

What about the “hydrolytic activity toward Pro-AMC in comparison (%) to Leu-MCA” value ([4]; substrate Pro-AMC, 5 mM, 37° C., 60 min) of the same molecule?
The value was 21.4%.

What about the “hydrolytic activity toward Pyr-AMC in comparison (%) to Leu-MCA” value ([4]; substrate Pyr-AMC, 5 mM, 37° C., 60 min) of the same molecule?
Its value is 0.0%.

And the “hydrolytic activity toward Ser-AMC in comparison (%) to Leu-MCA” value ([4]; substrate Ser-AMC, 5 mM, 37° C., 60 min)?
The value was 26.1%.

What about the “hydrolytic activity toward Thr-AMC in comparison (%) to Leu-MCA” value ([4]; substrate Thr-AMC, 5 mM, 37° C., 60 min) of the same molecule?
Its value is 0.9%.

And the “hydrolytic activity toward Val-AMC in comparison (%) to Leu-MCA” value ([4]; substrate Val-AMC, 5 mM, 37° C., 60 min)?
Its value is 4.8%.

And the “digestion of denatured casein” value (denatured casein)?
The value was “sequentially digest a full-length polypeptide chain, such as denatured casein”.

And the “hydrolytic activity toward Lys(Abz) Pro-PropNA in comparison (%) to Leu-MCA” value [5]?
The value was 0.0%.

And the “partial degradation of the 33 mer” value (gliadin 33 mer; within 4 h)?
The value was “less than 50%”.

And the “digestion of the 14 mer” value [1]?
Its value is “not digested; also recorded: results only in the cleavage of the N-terminal Proline”.

And the “removal of N-terminal alanine from Ala-proNPY” value (Ala-proNPY)?
Its value is “almost totally removed”.
